In the test the target is GST–Rac1a (full-length Dictyostelium Rac1a as a GST fusion, GTP-bound form) (Dictyostelium) (UniProt P34144).

The record followed here is paper PMC9270954.

As for “GST–GAP-RΔA (GAP domain of CARMIL-GAP with the conserved arginine changed to alanine, as a GST fusion) (domain or fragment)”, the fold activation of the GTP hydrolysis rate of GST–Rac1a (10 µM) by 2.5 µM GST–GAP-RΔA, 10 min at 20°C, free phosphate by CytoPhos; Rac1a alone normalized to 1.0 came to 1.74 fold. Turning to “GST–GAP (isolated GAP domain of CARMIL-GAP, residues 715–858, as a GST fusion) (domain or fragment)”, the fold activation of the GTP hydrolysis rate of GST–Rac1a (10 µM) by 2.5 µM GST–GAP, 10 min at 20°C, free phosphate by CytoPhos; Rac1a alone normalized to 1.0 was found to be 5.8 fold.
